Test results published in a protein production outcome set (Wang et al. 2014).

Assay: label from the status in PepcDB records
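Further: failed if final PepcDB status was selected cloned or expressed and not failed if soluble or beyond.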

| Sequence | protein production |
| --- | --- |
| MALKDTGSGGSTILPISEMVSASSSPGAPLAAAPGPCAPSPFPEVVELNVGGQVYVTKHSTLLSVPDSTLASMFSPSSPRGGARRRGDLPRDSRARFFIDRDGFLFRYVLDYLRDKQLALPEHFPEKERLLREAEFFQLTDLVKLLSPKVTKQNSLNDECCQSDLEDNVSQGSSDALLLRGAAAGAPSGSGAHGVSGVVGGGSAPDKRSGFLTLGYRGSYTTVRDNQADAKFRRVARIMVCGRIALAKEVFGDTLNESRDPDRQPEKYTSRFYLKFTYLEQAFDRLSEAGFHMVACNSSGTAAFVNQYRDDKIWSSYTEYIFFRPPQKIVSPKQEHEDRKRDKVTDKGSESGTSCNELSTSSCDSHSEASTPQDNPANTQQAAAHQPNTLTLDRPSRKAPVQWMPPPDKRRNSELFQSLISKSRETNLSKKKVCEKLSVEEEMKKCIQDFKKIHIPDCFPERKRQWQSELLQKYGL | failed |
| MPLSVGQGYFTSSISSEKFNAIKESARLPELSLWEKIKAYFFTTHHAEALECIFNLYHHQELNLTPVQVRGAYIKLRALASQGCKEQFIIESQEHADKLIIKDDNGENILSIEVECHPEAFGLAKEINKSHPKPKNISLGDITRLVFFGDSLSDSLGRMFEKTHHILPSYGQYFGGRFTNGFTWTEFLSSPHFLGKEMLNFAEGGSTSASYSCFNCIGDFVSNTDRQVASYTPSHQDLAIFLLGANDYMTLHKDNVIMVVEQQIDDIEKIISGGVNNVLVMGIPDLSLTPYGKHSDEKRKLKDESIAHNALLKTNVEELKEKYPQHKICYYETADAFKVIMEAASNIGYDTENPYTHHGYVHVPGAKDPQLDICPQYVFNDLVHPTQEVHHCFAIMLESFIAHHYSTE | failed |
| MEILTCIKQVPGTTSVEVDETTGVLKRDGVDSKMNPYDLYALETALRIKEDKKANLKVLSMGPPQAKKVIEESFMMGADEGALISDRRFGGADVLATSYTISQGIKKMGKVDLIICGKQTTDGDTAQVGPEVAEFLDIPHVTNVTKLIEVKDESIVVEIDMPNDLQVCEIEYPCLITVEKDIFQPRLPSFKLKLNTKDREIPVYSLDDFEDKNENNYGLNGSPTQVVRIFPPKPNTDKNIVRGNADELSFALVNKLEELKLV | not failed |
| FSIGVTGVMSAGKSTMLNAILQREILGTSVIPETANLTILRFDQNERAIVRFWNRHEWEMIAQSAQFDEGIDYFMKESLTVFGTVLHEYITQEGRTYEIPLEELSTYTSAKHPSKLCNLVKSVEIFTPLEFLDDGVEIVDTPGLDDPLTQREEITKEYLARCDVMLHLMNAAQPATQKDVDFIIDALIYQNVSRLLVILTRADSLTPQE | failed |
| MCKHILGKGYVDGVIEADEVFFTESFKGTKPSNMPRRSRKIGKQVKKSGISKEQVCITTAIDRQGNLIMELACKGRITSKELEKLYDGHISNESILCTDSRKSYIQFANDLSLEHKRIKRGKHKEGLYHIQHINVLHSNLRKWMNRFNGAATKYISNYIKWFKWLQIFDTHKEIIKAKNFIVQSNVAHAYIKVKDLKYREPICV | failed |
| MYYNIALAYTHLDIHHLAIHFVNMALEGFRSEYKFRNIINCQILIAVSYTEKGQYEEALKMYESILREATSFADKDVLLAITLSNMGSIYYKKGKYQQAKKYYLDSLQLQKQIDLNYLDTIYEMALVCIKLEELEEARTLIDKGIDAAKQEERFNAKLYLLLMLRYKYFEEAKDYKAFLENEAIPLYKSAGNKIELKKVYVELAEHFSSLSRFEESNRYYRLVIDLMNDNKEE | failed |
| MTDRDSLEPISRDELQARVAAGSVLVLDVRPAMEYAAGHLPGAVSIPLDELAERLDELPSGIDIVACCRGPYCVYAYDALELLRPNGFSARRLDGGFSEWLAADLPVVRTLEHHHHHH | not failed |
| MLGAPAHRAASAAPVIRRTKGPDMPTRLTALLSPSRPSRPSRDDAAGPVAGTARPARGAGWATALSLALVCFVTYAALSVRLHQRMLTTGYDLGIFEQAVRSYAHGHLPVAELKGPGFPLLGDHFSPVLALLAPLYRVWPAPVTLLVAQAALFAVAVIPLARWAEEVRGRRAALVVGLGYGASWGVAQAVGFDFHEVCFAVPLLALSLTAVGRGRARAAALWALPLLLVKEDLGLTVAVVGLLIARTGERDDRRRGGALVLAGVLGSFLEMLVVIPAFNPGGTFAYSSSVPGAGSATPGAGELLLHYTVGLVTPDTKAQTVLALLSVTGFLAVRSPLLWAALPTLLWRFASDNQAYWGTGYHYSAVLMPVLFAAFVDALTRPGPVRYALAASAAVTVLLLPQFPLWQLTQPATWHTDSRLASARRLMDRIPDGATVAASNRLVPQLTNRARVSVFGLGGSRPDAEWIIDDSAQPQGWPIAPDDDRRLLSEVRNNGRYRTVADQDGYVLLQRRP | failed |
| MKFDVIIIGGSYAGLSAALQLGRARKNILLVDAGERRNRFASHSHGFLGQDGKAPGEIIAEARRQIERYPTIHWVEGRVTDAKGSFGEFIVEIDGGRRETAGRLILAMGVTDELPEIAGLRERWGSAVFHCPYCHGYELDQGKIGVIAASPMAIHHALMLPDWGETTFFTNGIVEPDADQHALLAARGVRVETTRIREIAGHADVVLADGRSIALAGLFTQPKLRITVDWIEKLGCAVEEGPMGSTIVTDPMKQTTARGIFACGDVARPAGSVALAVGDGAMAGAAAHRSILFPEMR | not failed |
| MLLSHAFGLFTHPEDEWVSIKKEHEHPTRLYVAYVVVLAAIAPICAYISTAHFGWSIGSERLIKLTEISALQMSVLTYLAMLVGVFALGYAINWMAKTYGAKEEHVPSNGIALAAYSCTPLFLAGFALLYPVPWFNAVVFLAAACYGAWLMYDGLPIVMGIEKERAVMYGGALLTVALVILVSTRVGSVILWNLGLGPVFVSG | failed |
| MAAKFHLKKAKDGQFHFNLHAANGEIILTSELYKAKDSALGGIESVRKNSQRDGAFEVKPANNGKFHFVLKATNGQVVGQSQLYASQANAEAGVQSVKRATPEAGLSDESLEHHHHHH | not failed |
| MRKLFIPLLLFSALEANEKNGFFIEAGFETGLLEGTQTQEKRHTTTKNTYATYNYLPTDTILKRAANLFTNAEAISKLKFSSLSPVRVLYMYNGQLTIENFLPYNLSNVKLSFTDAQGNVIDLGVIETIPKHSKIVLPGEAFDSLKIDPYTLFLPKIEATSTSVSDANTQRVFETLNKIKTDLVVNYRNENKFKDHENHWEAFTPQTAEEFTNLMLNMIAVLDSQSWGDAILNAPFEFTNKDGGEECDTSKENECVNPGTNGRVNSKVDQQYVLNKQDIVNKFRNKADLDVVILKDSGVVGLGSDITPSNNDDGKHYGQLGVVASALDPKKLFGDNLKTINLEDLRTILHEFSHTKGYTHNGNMTYQRVPVMKDGQVEKDSNGKPKDSDGLPYNVCSLYGGQGQSAFPSNYPNSIYHNCADVPAGFLGVTAAVWQQLINQNALPINYANLSTQTNYNLNASLNTQDLANSMLSTIQKTFVTSSVTNHYSSSASQSFRSPILGVNAKIGYQNYFNDFIGLAYYGIIKYNYAKAINQKVQQLSYGGGIDLLLDFITTYSNKNSPTGIQTKRNFSSSFGIFGGLRGLYNSYYVLNKVKGSGNLDVATGLNYRYKHSKYSVGISIPLIQRKASVVSNGGDYTNSFVFNEGASHFKVFFNYGWVF | failed |
| MTYVLYGIKACDTMKKARTWLDEHKVAYDFHDYKAVGIDREHLRRWCAEHGWQTVLNRAGTTFRKLDEAQKADLDEAKAIELMLAQPSMIKRPVLELGGRTLVGFKPDAYAAALA | not failed |
| FTCPITKEEMKKPVKNKVCGHTYEEDAIVRMIESRQKRKKKAYCPQIGCSHTDIRKSDLIQDEALRRAIENHNKKRHRHSE | not failed |
| MELNAVKSSYARWAPIYDKTFGAITNVGRHAAVDYINAHDATELLEVGVGTGLSLPNYRPGLKVTGIDFSEEMLAKARAKVESLGLGHVQSLRQMDARDLDFADASFDVVAAMHIISVVPEPERVMAEMARVCKPGGLIVITNHFARDSGMLARVERFAAPFANLLGWHPDFEISSVLKQPLEHHHHHH | failed |
| ADSPVLMVYGLDQSKMNCDRVFNVFCLYGNVEKVKFMKSKPGAAMVEMADGYAVDRAITHLNNNFMFGQKMNVCVSKQPAIMPGQSYGLEDGSCSYKDFSESRNNRFSTPEQAAKNRIQHPSNVLHFFNAPLEVTEENFFEICDELGVKRPTSVKVFSGKSERSSSGLLEWDSKSDALETLGFLNHYQMKNPNGPYPYTLKLCFSTAQHAS | not failed |
| MEAGFVSVGDVTFRDLEDEAIVELVRKGNTDALEYLIHKYKNFVRAKSRSYFLVGADREDIVQEGMIGLFKAIRDYKEDKLSSFKAFAELCITRQIITAIKTATRQKHIPLNSYVSLDKPIYDEESDRTLLDVISEAKVTDPEEMIISQEEYTDIESKISELLSDLERKVLSLYLDGRSYQEISEQLNRHVKSIDNALQRVKRKLERYMEMRESTTLNS | failed |
| MTQMRFTEEDFNTFTIEGLDARMEVLKETVRPKLTALGEHFAPTLSALTGDEMFPHVAKHARRSVNPPADSWVAFANSKRGYKKLPHFQIGLWESHVFVWFAIIYESPIKEEYGKLLEVNQETITKNIPDSFVWSADHTKPGVHKQSEMDKEQLKTLFERLQTVKKAELLCGIQLQKEEVLNMNNQEFLQRIDDAFKQLAFLYRLTQKVTQALEHHHHHH | not failed |
| MEAKKSNKIREIVKLQQLLKKWRKQAIASKAANNNNEDNNSSGGGSKSIKFLKRTLSFTDVTAVPKGYLAVSVGLEKKRYTIPTEYLSHQAFYVLLREAEEEFGFQQAGVLRIPCEVSVFESILKIMEEKNEGYLVTPITAKQECKFNAAADDKTSYQHPSDCPKTPSHQPHNSPMCR | not failed |
| MIQVPASFDIQGHRGCRGLLPENTIAAFTKALLLGVTTLEFDLVISKDNRVVVSHDTFFHHEITMMVDGEDVTEANEKNFNLYAMNYADIKEIDVGMKTHPRFKSQKKVPAVKPLFRELIETAEKLSAKIQYNGEIKSTVEGDNIDHPNIALFCDLVVAEIKKAHITDRFTLQSFDVRALEYMHSQYPDIKLSYLVETKGTLKKQLEKLSFTPAVYSPDVTLVSKKDIDAAHKLGMRVIPWTVNTKEEIETLISLGVDGIITDYPDLFFEK | not failed |
| MPKIIEAIYENGVFKPLQKVDLKEGERIKLRIEEGILDVIKKYQGKFKLTEKDIEKFLEERRLEHHHHHH | not failed |
| MDVFDGLPDPIIVDILNKVGDVKTLLRCSSLSKRFNSLVPQSESLTLRLDHSVSDSPVVTSIFRSLFNGLVSLLSKPAKPITITTLSPSLPFKILSRFDRIRNLDVELPGGDVKLEKGAAVKWKAEFGKTLKSCVIVAFRSAGTVSSPVAVEGESDAEFVTGLKTRVVWTISALMAASSRHYLMREVVKEHEEIESLVMRDKEREGTVVMNEEGLKELRNTEARVEDEERVVKNKRSVVPSVRMSMRHAPSLKLKSGICLESATLVIVRPSGADFEVGDDAELATEAFVGDCMYGEAVVALLKCKKNALEMNSF | failed |
| MPRRKTKKREEGLSAIDLANEEMGYVLSLIERTDQSLFLTGKAGTGKSTLLRHICATTHKKFVVLAPTGLAALNVGGQTLHSFFKLPLRPIPPNDPDLSTRDRRVFDVFRYTNEHKKLIRSLDLIIIDEVSMVRADVIDAIDKLLGIYRGRQERPFGGVQMLFVGDLYQLEPVVTADDADILKRFYPNPFFFSSEALRATPPVTVELTKVYRQTEQAFVQILDRIRSGRLTEQDLQDINKCVNRHYEPPKDEPVITLATKRRHVSYINERQLEQLQGDPVTLYGTIEGDFPSSSLPTEEELTLKQDAQVIFVSNDKDRRWVNGTLGIVAGFDQESETIDVCLSTGEVVTVEPCIWDNKRFSYNEQANKVEEEVLGRFVQYPLKLAWAITVHKSQGLTFDRVIIDFSEGTFAGGQAYVALSRCRSLEGMVLRAPLAGRDVIVRREIIDFYSRANDLEIINGSLLRAEAEREYAQALRLWNARHYTEAIGAFSQALARKNELDDPLFRRLLVSKLFEMEYARRREEELRRELAEQREVMRRLAKEYVLMGNDCITEAHDAHAAIRCYDKALTLYPDYVEALVRKGKTLAGLNEITTSLSTLNQAIAIAPMDFTARFTLGQVLEKFAYYEEALDAYRQADGLNSQSRSLLKRLIALCEELDEEDEANLYRIRLRKNRDQTGHK | failed |
